This series can be described thus: protein stability index of a GFP-peptide fusion (GPS, HEK-293T) (PSI 1-6); higher = more stable. As to conditions: c terminus: a fixed tail appended.

± gives the standard deviation.

This passage reports protein stability index results from the supplement of paper PMC10567573.
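Further: 24-mer peptide tiles fused after GFP, lentivirally expressed, FACS-sorted into six equal bins by GFP/DsRed ratio, decoded by Illumina sequencing, PSI is the read-weighted mean bin number.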

With TDLEMQIESLNEELAYMKKNHEEE [KRT13], the protein stability index (treatment: DMSO) was found to be 5.4 ± 0.16 and the protein stability index (treatment: MLN4924 1 uM, 8 h) was 5.433 ± 0.051.
The corresponding values for FIYSLKQMLLNVEANSAKVQEDLE [FSD1] are 2.55 ± 0.16 and 2.38 ± 0.28.
Consider DKDRRFVFSYFLATDMISIFEPPV [EFHC1], for which the protein stability index reads like this: (treatment: DMSO) 2.38 ± 0.47; (treatment: MLN4924 1 uM, 8 h) 2.72 ± 0.61.
The corresponding values for HHFFCDIAPVLKLASHHNHFSQIV [OR10K2] are 2.45 ± 0.45 and 2.67 ± 0.55.
The matching figures for LGEDNQPETQLFWDKEPWFWHDTL [TLE6]: 3.37 ± 0.35 and 3.32 ± 0.27.
The corresponding values for MEALKLQPGLSFLNLGSGTGYLST [PCMTD1] are 2.3 ± 0.2 and 2.31 ± 0.22.
Turning to RGSRGAPPPLGPVVPVLVFPPDLV [MOSPD3], the protein stability index reads like this: (treatment: DMSO) 2.67 ± 0.05; (treatment: MLN4924 1 uM, 8 h) 2.96 ± 0.22.
The corresponding values for CPRPCRESAFKLSTGTSRWPSAKS [SCNN1D] are 2.7 ± 0.62 and 2.65 ± 0.45.
The matching figures for ILTADLYSLFVGLFLFGYKFSGLY [SLC35F2]: 2.45 ± 0.49 and 3.27 ± 0.19.
The matching figures for VSLHQASLGGCSQDFLLFSPEVES [NFE2L1]: 2.06 ± 0.12 and 2.971 ± 0.02.
Take EDTHQSPEPEDEPGGPGAMTESLE [RSPH3]: the protein stability index by setting is: (treatment: DMSO) 5.43 ± 0.38; (treatment: MLN4924 1 uM, 8 h) 5.64 ± 0.14.
For the sequence EGDTVSQELLDTVLVNLVPAHKNL [PDS5B], the protein stability index amounted to 3.65 ± 0.24 (treatment: DMSO) and 3.94 ± 0.34 (treatment: MLN4924 1 uM, 8 h).
NIYCLNCEVPTCSLCKVFGAHKDC [TRIM55]: the protein stability index (treatment: DMSO) was 3.11 ± 0.35 and the protein stability index (treatment: MLN4924 1 uM, 8 h) turned out to be 3.21 ± 0.48.
As to SVNEVDFEGRTPMHVACQHGQENI [RIPK4], the protein stability index (treatment: DMSO) was 4.31 ± 0.27 and the protein stability index (treatment: MLN4924 1 uM, 8 h) is 4.57 ± 0.076.
The corresponding values for QSKPLLSAFADIIHSLKESGQLWL [FADS1] are 2.8 ± 0.4 and 2.87 ± 0.68.
The corresponding values for EVPQLPPRASISHVTCVDQSEHTM [C2CD2L] are 4.66 ± 0.15 and 4.7 ± 0.25.
The corresponding values for IPYNAKFLGSTEVEQPKGTEVVRD [GULP1] are 4.7 ± 0.44 and 4.69 ± 0.23.
Take QAPPQDSSNKKEKKVLNHGYDDDN [DYRK1B]: the protein stability index came to 5.61 ± 0.16 (treatment: DMSO) and 5.51 ± 0.11 (treatment: MLN4924 1 uM, 8 h).
The matching figures for MEEMEEELKCPVCGSFYREPIILP [TRIM9]: 4.05 ± 0.35 and 4.38 ± 0.28.
Consider LDQPAFQQLVSFSESGSLGNSSGS [ISL2], for which the protein stability index is 4.43 ± 0.13 (treatment: DMSO) and 4.56 ± 0.075 (treatment: MLN4924 1 uM, 8 h).
With LIYASYFALIAVVFLASGAVSVMK [SLC19A2], the protein stability index by setting is: (treatment: DMSO) 2.95 ± 0.27; (treatment: MLN4924 1 uM, 8 h) 3.44 ± 0.43.
LRLEGLLCDVTLMPGDTDDAFPVH [KLHL13]: the protein stability index is 2.42 ± 0.24 (treatment: DMSO) and 2.48 ± 0.35 (treatment: MLN4924 1 uM, 8 h).
For AVIAQQRRKPDPPKDENERSTCNV [DLC1], the protein stability index (treatment: DMSO) came out at 5.24 ± 0.21 and the protein stability index (treatment: MLN4924 1 uM, 8 h) turned out to be 5.12 ± 0.19.
The corresponding values for INEDLKTCSRVDYCLLSDHGCEYS [MATN2] are 3.41 ± 0.21 and 3.35 ± 0.33.
The corresponding values for SEADASHCIQQILESVNHCHLNGI [CAMK2D] are 2.98 ± 0.27 and 2.89 ± 0.33.
The matching figures for NTFVRYLLKRIKKCCGMRNTDVSM [KCNK9]: 3.38 ± 0.59 and 3 ± 0.35.
KFLPSSEEDNDDAKILPSPVQGSS [DRICH1]: the protein stability index was found to be 5.21 ± 0.25 (treatment: DMSO) and 5.47 ± 0.17 (treatment: MLN4924 1 uM, 8 h).
The corresponding values for QFLFIYQLPFCGPNVIDNFLCDLY [OR4A15] are 3.04 ± 0.11 and 2.86 ± 0.38.
The corresponding values for QDHFHVFVGDLSPEITTEDIKAAF [TIA1] are 2.73 ± 0.54 and 3 ± 0.33.
For LDLSEEDSDDPSVTLELSQLSMLP [VDR], the protein stability index reads like this: (treatment: DMSO) 4.62 ± 0.3; (treatment: MLN4924 1 uM, 8 h) 4.73 ± 0.26.
The matching figures for KRCINLWKYALDMQQSNLDPLSPM [FEM1C]: 2.33 ± 0.48 and 2.07 ± 0.38.
Regarding RALESELQQLRARLQGLEADCVRG [PBXIP1], the protein stability index reads like this: (treatment: DMSO) 3.47 ± 0.19; (treatment: MLN4924 1 uM, 8 h) 3.31 ± 0.13.
The corresponding values for VAQRSGCEERWLVIDRKVYNISEF [FADS1] are 2.11 ± 0.084 and 2.12 ± 0.32.
As for NCIGIRDFALHYCLHHVHYLATEY [GAN], the protein stability index was determined as 3.1 ± 0.51 (treatment: DMSO) and 3.32 ± 0.33 (treatment: MLN4924 1 uM, 8 h).
The corresponding values for EIHSKTTAYSRLNETQPIDLSGLP [RNF180] are 3.6 ± 0.14 and 3.75 ± 0.25.
The matching figures for VARSGTPAVENKQQIGDAIRMIVR [PLK2]: 3 ± 0.22 and 3.09 ± 0.23.
